# According to the RNAGym collection of RNA variant scans (doi:10.1021/acssynbio.7b00057):
# B1: Pistol ribozyme (parent)
# chain: GGGUCGUUGUUCCAUAAUCGCGUGGAUAUGGCACGCAAGUUUCUACCGGGCACCGUAAAUGUCCGACUGGAGCCGUUCGGGCGGCUAUAAACAGACCUCAGGCCCGAAGCGUGGCGGCACCUGCCGCCGGUGGUAAAAAAGAUCGGAAGAGCACACGUCU
# Variants of: B1
# Assay: aptazyme ON/OFF ratio, guanine; higher = stronger switching; co-transcriptional cleavage with and without guanine
row,Variant,aptazyme ON/OFF ratio
1,U7C G9U U10A U11A C12G,1.29
2,U7C G9U U10A U11A C12U,1.36
3,U7C G9U U10A U11A C12A,1.2
4,U7C G9U U10A U11G C12G C13A,1.1
5,U7C G9U U10A U11G C12G C13U,1.16
6,U7C G9U U10A U11G C12G C13G,1.14
7,U7C G9C U11C C12G C13G,1.04
8,U7C G9C U11C C12G C13U,1.04
9,U7C G9C U11C C12G C13A,1.04
10,U7C G9C U11A C12G C13G,1.07
11,U7C G9C U11A C12G C13U,1.14
12,U7C G9C U11A C12G C13A,1.12
13,U7C G9C U11C C13U,1
14,U7C G9C U11C C13A,1.02
15,U7C G9C U11C C13G,1.02
16,U7C G9C C12G C13G,1.05
17,U7C G9C C12G C13U,1.05
18,U7C G9C C12G C13A,1.04
19,U7C G9C U10G C13A,1.11
20,U7C G9C U10G C13U,1.07
21,U7C G9C U10G C13G,1.08

row,Variant,aptazyme ON/OFF ratio
1,U7C G9C U10C U11G C12U C13G,1.1
2,U7C G9C U10C U11G C12U C13A,1.08
3,U7C G9C U10C U11G C12U C13U,1.09
4,U7C G9C U10A U11G C12U C13U,1.13
5,U7C G9C U10A U11G C12U C13A,1.12
6,U7C G9C U10A U11G C12U C13G,1.08
7,U7C G9C U10C U11A,0.975
8,U7C G9C U10C U11C,0.99
9,U7C G9C U10C U11G,1.07
10,U7C G9C U10C U11G C12G C13G,1.11
11,U7C G9C U10C U11G C12G C13A,1.11
12,U7C G9C U10C U11G C12G C13U,1.12
13,U7C G9C U11G C12G C13U,1.07
14,U7C G9C U11G C12G C13G,1.09
15,U7C G9C U11G C12G C13A,1.08
16,U7C G9U U10A U11A C12G C13A,1.17
17,U7C G9U U10A U11A C12G C13U,1.2
18,U7C G9U U10A U11A C12G C13G,1.19
19,U7C G9U C12U C13G,1.1
20,U7C G9U C12U C13U,1.12
21,U7C G9U C12U C13A,1.12

row,Variant,aptazyme ON/OFF ratio
1,U7C G9C U10A U11A C12A C13A,1.09
2,U7C G9C U10A U11A C12A C13U,1.06
3,U7C G9C U10A U11A C12A C13G,1.08
4,U7C G9U C13G,1.04
5,U7C G9U C13A,1.04
6,U7C G9U C13U,1.06
7,U7C G9C U10C C12U C13U,1.07
8,U7C G9C U10C C12U C13G,1.07
9,U7C G9C U10C C12U C13A,1.04
10,U7C G9C U10G U11A C12A C13G,1.09
11,U7C G9C U10G U11A C12A C13A,1.31
12,U7C G9C U10G U11A C12A C13U,1.4
13,U7C G9C U10C U11C C12U,1.01
14,U7C G9C U10C U11C C12A,1.03
15,U7C G9C U10C U11C C12G,1.03
16,U7C G9C U10A C12G C13U,1.12
17,U7C G9C U10A C12G C13G,1.11
18,U7C G9C U10A C12G C13A,1.07
19,U7C G9C U10A U11C,1.04
20,U7C G9C U10A U11A,1.05
21,U7C G9C U10A U11G,1.09

row,Variant,aptazyme ON/OFF ratio
1,U7C G9C U11G C12A C13G,1.06
2,U7C G9C U11G C12A C13U,1.07
3,U7C G9C U11G C12A C13A,1.05
4,U7C G9C U10G U11A C12G,1.23
5,U7C G9C U10G U11A C12A,1.25
6,U7C G9C U10G U11A C12U,1.15
7,U7C G9C U10A C12G,1.09
8,U7C G9C U10A C12U,1.06
9,U7C G9C U10A C12A,1.04
10,U7C G9C U10A C13G,1.05
11,U7C G9C U10A C13U,1.05
12,U7C G9C U10A C13A,1.04
13,U7C G9U C12A C13A,1.18
14,U7C G9U C12A C13G,1.08
15,U7C G9U C12A C13U,1.19
16,U7C G9U C12G C13U,1.15
17,U7C G9U C12G C13A,1.11
18,U7C G9U C12G C13G,1.1
19,U7C G9C U10G C12A,1.12
20,U7C G9C U10G C12G,1.13
21,U7C G9C U10G C12U,1.2
